In PMC10760138 (bioRxiv, 2024):

B1: S8V1–157 recombinant human IgG1 (antibody, V domains shown)
VH: EVQLVQSGAEVKKPGASVKVSCKVSGYRLTALSMHWVRQAPGKGLEWMGGFDPEEDETIYAQNFQGRVTLTEDTSTDTVYMELSSLRSEDTGVYYCATLMGANPFDYWGQGTLIIVSG
VL: not shown
B2: HC19 recombinant IgG (antibody, V domains shown)
VH: QVQLKESGPGLVAPSQSLSITCTVSGFLLISNGVHWVRQPPGKGLEWLGVIWAGGNTNYNSALMSRVSISKDNSKSQVFLKMKSLQTDDTAMYYCARDFYDYDVFYYAMDYWGQGTSVTVSS
VL: QAVVTQESALTTSPGETVTLTCRSSTGAVTTSNYANWVQEKPDHLFTGLIGGTNNRAPGVPARFSGSLIGDKAALTITGAQTEDEAIYFCALWYSNHWVFGGGTKLTVL
B3: S5V2–29 recombinant IgG (antibody, V domains shown)
VH: QVQLQESGPGLVKPSETLSLTCTVSGGSVSSNIYYWSWIRQTPGKGLEWLGYFYHSGSSNYNPSLKSRVTISGDMSKNQFSLKLKSVTAADTAIYYCARGGVENLMLVAVIQEMWYFDLWGRGTLVTVSG
VL: DIQMTQTPSSLSASVGDRVTITCRASQSIGASLNWYQQKPGEAPKFLIYAASNLQSGVPSRFSGSGSGTDFTLTISSLQPEDFATYYCQQQGTFGQGTKLEIK

Molecular target: full-length, membrane-anchored A/Aichi/02/1968(H3N2)(X-31) HA (Influenza A virus …, UniProt P03437)
Assay: flow cytometry on cells

Binder | binding result
B1 | binds
B2 | binds
B3 | binds
